T1: chimeric human/cynomolgus monkey CD89-hotspots (human/cynomolgus monkey chimera, UniProt P24071 22-287)
T1 construct: also called ΔThr58, Gln59; ΔArg73, Arg74, Lys76
T1 chain: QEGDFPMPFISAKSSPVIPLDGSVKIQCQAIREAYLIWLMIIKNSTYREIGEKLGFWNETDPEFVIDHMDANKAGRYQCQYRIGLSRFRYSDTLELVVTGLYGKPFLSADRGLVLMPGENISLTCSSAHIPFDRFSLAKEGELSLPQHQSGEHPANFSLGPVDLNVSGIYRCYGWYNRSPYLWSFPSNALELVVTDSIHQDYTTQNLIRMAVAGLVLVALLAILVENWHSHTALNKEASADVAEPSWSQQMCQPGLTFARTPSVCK

T2: chimeric human/cynomolgus monkey CD89-III (human/cynomolgus monkey chimera, UniProt P24071 22-287)
T2 construct: also called ΔGly72-Gly96 human EC1-CD89; III (72-96)
T2 chain: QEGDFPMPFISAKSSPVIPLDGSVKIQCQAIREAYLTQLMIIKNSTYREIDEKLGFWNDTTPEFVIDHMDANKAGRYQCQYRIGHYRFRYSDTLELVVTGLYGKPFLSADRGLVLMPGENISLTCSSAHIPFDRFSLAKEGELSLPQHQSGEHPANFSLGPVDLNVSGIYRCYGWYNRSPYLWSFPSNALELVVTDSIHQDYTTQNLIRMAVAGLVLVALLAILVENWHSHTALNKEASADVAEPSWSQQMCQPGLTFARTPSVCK

T3: chimeric human/cynomolgus monkey CD89-II (human/cynomolgus monkey chimera, UniProt P24071 22-287)
T3 construct: also called ΔIle47-Ile71 human EC1-CD89; II (47-71)
T3 chain: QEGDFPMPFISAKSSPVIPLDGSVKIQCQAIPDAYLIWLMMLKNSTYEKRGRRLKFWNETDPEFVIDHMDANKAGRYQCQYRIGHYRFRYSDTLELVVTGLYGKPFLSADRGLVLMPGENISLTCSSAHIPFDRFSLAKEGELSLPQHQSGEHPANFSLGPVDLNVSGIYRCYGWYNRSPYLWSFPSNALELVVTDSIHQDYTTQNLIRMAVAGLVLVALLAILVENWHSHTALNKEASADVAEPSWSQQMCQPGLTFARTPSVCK

T4: membrane full-length bovine Fcγ2R (bovine)
T4 chain: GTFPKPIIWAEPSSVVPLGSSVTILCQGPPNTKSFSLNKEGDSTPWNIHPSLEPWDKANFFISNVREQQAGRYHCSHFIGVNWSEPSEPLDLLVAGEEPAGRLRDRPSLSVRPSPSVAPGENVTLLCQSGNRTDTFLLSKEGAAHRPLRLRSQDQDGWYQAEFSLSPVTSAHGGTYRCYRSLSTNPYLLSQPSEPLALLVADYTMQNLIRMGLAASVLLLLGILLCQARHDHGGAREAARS


Columns and labels:
[1] = target: T5, membrane-bound full-length human CD89 (human, UniProt P24071 22-287); experiment: FACS, HEK293F-huCD89, unlabeled Ab 10 ug/mL first; competitor A59-PE
T5 construct: on stably or transiently transfected HEK293F cells; also called FcalphaRI; huCD89
Description: Then, 10 μL/tube (ie, 0.1×10⁶ cells) of these cells were incubated with or without 100 μL purified mouse anti-human CD89 antibody at 10 μg/mL (in PBS/BSA/NaN₃) for 30 minutes at 4° C. […] After extensive washing in PBS/BSA/NaN₃, cells were fixed in 2% formaldehyde in PBS/BSA/NaN₃ for 30 minutes at 4° C.

[2] = target: T1, chimeric human/cynomolgus monkey …; experiment: FACS, transiently transfected HEK293F; - = no binding
Description: (§1) After 48 hours, the binding of CD89/IgA blocking mouse anti-human CD89 antibodies to aforementioned chimeric human CD89/cynomolgus monkey CD89 constructs on transfected cells was analyzed by FACS analysis. To this end, transient transfected HEK293F cells were put at 10×10⁶ cells/mL in ice-chilled phosphate-buffered saline containing 0.1% BSA (Sigma)/0.05% NaN₃ (PBS/BSA/NaN₃) supplemented with 50 μg/mL human IgGs (blocking Fcγ receptors; Sigma) for 10 minutes at 4° C. Then, 10 μL/tube (ie, 0.1×10⁶ cells) of these cells were incubated with or without 100 μL purified mouse anti-human CD89 antibody at 10 μg/mL (in PBS/BSA/NaN₃) for 30 minutes at 4° C. […] After extensive washing in PBS/BSA/NaN₃, cells were subsequently incubated with 1:200 diluted PE-conjugated goat anti-mouse IgG Fey-specific antibodies (Jackson ImmunoResearch) for 30 minutes at 4° C. After extensive washing in PBS/BSA/NaN₃, cells were fixed in 2% formaldehyde in PBS/BSA/NaN₃ for 30 minutes at 4° C.

[3] = target: T2, chimeric human/cynomolgus monkey …; experiment: as above
Description: as §1

[4] = target: T3, chimeric human/cynomolgus monkey CD89-II; experiment: FACS, transiently transfected HEK293F, 10 ug/mL; ++ strong, + intermediate, -/+ weak
Description: as §1

[5] = target: T5, membrane-bound full-length human CD89; experiment: FACS, HEK293F-huCD89, 4C +NaN3, IgA then Ab 10 ug/mL; pre-bound heat-aggr serum IgA
Description: After extensive washing in PBS/BSA/NaN₃, 1:200 diluted PE-conjugated streptavidin (Jackson ImmunoResearch) was added, and incubated for 30 minutes at 4° C. After extensive washing in PBS/BSA/NaN₃, cells were fixed in 2% formaldehyde in PBS/BSA/NaN₃ for 30 minutes at 4° C.

[6] = target: T5, membrane-bound full-length human CD89; experiment: FACS, HEK293F-huCD89, 4C +NaN3, IgA then Ab 10 ug/mL; pre-bound non-aggr serum IgA
Description: After this (ie, without washing), 50 μL purified mouse anti-human CD89 antibody at 20 μg/mL (in PBS/BSA/NaN₃) was added to these cells, and incubated for another 30 minutes at 4° C. […] After extensive washing in PBS/BSA/NaN₃, 1:200 diluted PE-conjugated streptavidin (Jackson ImmunoResearch) was added, and incubated for 30 minutes at 4° C. After extensive washing in PBS/BSA/NaN₃, cells were fixed in 2% formaldehyde in PBS/BSA/NaN₃ for 30 minutes at 4° C.

[7] = target: T3, chimeric human/cynomolgus monkey CD89-II; experiment: FACS, transiently transfected HEK293F; - = no binding
Description: as §1

[8] = target: T1, chimeric human/cynomolgus monkey …; experiment: FACS, transiently transfected HEK293F, 10 ug/mL; ++ strong, + intermediate, -/+ weak
Description: as §1

[9] = target: T2, chimeric human/cynomolgus monkey …; experiment: as above
Description: as §1

[10] = target: T6, chimeric human EC1-CD89/bovine EC2-Fcγ2R (human TM & human IC) (human/bovine chimera); experiment: FACS, transiently transfected HEK293F, 10 ug/mL
T6 construct: also called human EC1-CD89 (version with human transmembrane-intracellular region)
Description: (§2) After 48 hours and/or 72 hours, the binding of CD89/IgA blocking mouse anti-human CD89 antibodies to aforementioned chimeric human/bovine receptors on transfected cells was analyzed by FACS analysis. To this end, transient transfected HEK293F cells were put at 10×10⁶ cells/mL in ice-chilled phosphate-buffered saline containing 0.1% BSA (Sigma)/0.05% NaN₃ (PBS/BSA/NaN₃) supplemented with 50 μg/mL human IgGs (blocking Fcγ receptors; Sigma) for 10 minutes at 4° C. Then, 10 μL/tube (ie, 0.1×10⁶ cells) of these cells were incubated with or without 100 μL purified mouse anti-human CD89 antibody at 10 μg/mL (in PBS/BSA/NaN₃) for 30 minutes at 4° C. […] After extensive washing in PBS/BSA/NaN₃, cells were subsequently incubated with 1:200 diluted PE-conjugated goat anti-mouse IgG Fey-specific antibodies (Jackson ImmunoResearch) for 30 minutes at 4° C. After extensive washing in PBS/BSA/NaN₃, cells were fixed in 2% formaldehyde in PBS/BSA/NaN₃ for 30 minutes at 4° C.

[11] = target: T7, chimeric human EC1-CD89/bovine EC2-Fcγ2R (bovine TM & bovine IC) (human/bovine chimera); experiment: FACS, transiently transfected HEK293F, 10 ug/mL
T7 construct: also called human EC1-CD89 (version with bovine transmembrane-intracellular region)
Description: as §2

[12] = target: T4, membrane full-length bovine Fcγ2R; experiment: FACS, transiently transfected HEK293F

% blocking of A59-PE binding [1] [%] | binding result [2] | binding result [3] | binding result [4] | percent IgA binding [5] [%] | percent IgA binding [6] [%] | binding result [7] | binding result [8] | binding result [9] | binding result [10] | binding result [11] | binding result [12] | Binder
< 25 | no binding (tested: 10 µg/mL) | no binding (tested: 10 µg/mL) | binds | – | – | – | – | – | – | – | – | mouse anti-human CD89-specific antibody 8F3 (antibody, mouse IgG1, V domains shown) VH: EVQLVESGGGLVKPGGSLKLSCAASGFTFSNYGMSWVRQTPDKRLEWVATMHSGGTYTYYPDNVKGRFTISRDNAKNNLYLQMSSLRSEDTAMYYCARETGLYDGLFDFWGQGTTLTVSS VL: DVQITQSPSYLAASPGETITINCRASKTISKYLAWYQEKPGKTNMLLIYSGSTLQSGVPSRFSGSGSGTDFTLTISSLEPEDLAMYYCQQHDEYPWTFGGGTKLEIK
– | – | – | – | 26 to 50 | 0 to 25 | no binding (tested: 10 µg/mL) | binds | binds | – | – | – | mouse anti-human CD89-specific antibody 20B4 (antibody, mouse IgG1, V domains shown) VH: QVQLKESGPGLVAPSQSLSITCTVSGFSLTSYGVHWVRQPPGKGLEWLGIIWAGGSTSYNSALMSRLSISKDNSKSQVFLKMNSLQTDDTAMYYCARDHYDLFAYWGQGTLVTVSA VL: DILMTQSPSSMSVSLGDTVSITCHASQDISRNIGWLQQKPGKSFKGLIYHGTNLEDGVPSRFSGSGSGADYSLTISSLESEDFADYYCVQYAQFPRTFGGGTKLEIK
< 25 | no binding (tested: 10 µg/mL) | – | binds | – | – | – | – | – | binds | binds | no binding (tested: 10 µg/mL) | mouse anti-human CD89-specific antibody 10E7 (antibody, mouse IgG1, V domains shown) VH: EVQLVESGGGLVQPGGSLKLSCAASGLTFSSYGMSWVRQTPDKRLELVATINGNGDITYYPDSVKGRFTISRDNAKNTLYLQMSSLKSEDTAMYYCARDYDYDYAMDYWGQGTSVTVSS VL: DIQMTQSTSSLSASLGDSVTISCRASQDIINYLNWYQQKPDGTVKLLIYYTSRLHSGVPSRFSGSGSGTEYSLTVSNLEKEDIATYFCQQGKTLPYTFGGGTKLEIK

— patent US20210388084A1 (JJP BIOLOGICS SP Z O O, published 2021)
